Experimental data taken from patent US20090202499A1, “Human Telomerase Reverse Transcriptase Peptides” (priority 2006, published 2009).

Key:
Conditions in all cases: remark: other sources report otherwise
[1] = molecular target: purified HLA-B*0801 (human); experiment: competition radioimmunoassay on purified HLA, radiolabeled standard peptide
[2] = molecular target: purified HLA-B*0702 (human); experiment: as above
[3] = molecular target: purified HLA-B*0702 (human); experiment: competition solid-phase radioimmunoassay on purified HLA-B7, radiolabeled standard peptide
[4] = molecular target: HLA-B*0702 on T2-B7 cells (human); experiment: MHC stabilization assay on T2-B7 cells (flow cytometry), relative to a reference peptide
[5] = molecular target: purified HLA-B*5301 (human); experiment: competition radioimmunoassay on purified HLA, radiolabeled standard peptide
[6] = molecular target: purified HLA-B*3501 (human); experiment: as above

| IC50 [1] | IC50 [2] | IC50 [3] | RA (relative avidity) [4] | IC50 [5] | IC50 [6] | Binder |
| --- | --- | --- | --- | --- | --- | --- |
| 217 nM | 239 nM | 239 nM | – | – | – | DPRRLVQLL [hTRT peptide p444 (…)] |
| – | – | – | 4.7 | – | – | RPAEEATSL [hTRT peptide p277 (…)] |
| 37 nM | – | – | – | 2200 nM | 1020 nM | RPSFLLSSL [hTRT peptide p342 (…)] |
